T1: recombinant human CD79B extracellular domain (amino acids 29-159), huCD79B (human, UniProt P40259 29-159)
T1 construct: Immunogen and SPR analyte; No tag or fusion partner is stated; also called human CD79B antigen; CD79B antigen
T1 sequence: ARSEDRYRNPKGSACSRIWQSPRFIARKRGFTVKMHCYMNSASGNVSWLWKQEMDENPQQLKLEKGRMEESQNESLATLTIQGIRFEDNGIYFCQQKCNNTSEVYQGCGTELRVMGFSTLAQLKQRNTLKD


Key:
[1] = biological target: recombinant human CD79B extracellular domain (amino acids 29-159), huCD79B (human) (UniProt P40259); assay: Biacore SPR, antibody captured on Protein A chip, huCD79B as analyte, 1:1 kinetic model
[2] = biological target: CD79B protein as expressed in Daudi cells and diffuse large B-cell lymphoma tissue (UniProt P40259); assay: immunohistochemistry on 69 diffuse large B-cell lymphoma tissue cases; share of cases stained positive
[3] = biological target: T1, recombinant human CD79B extracellular …; assay: Biacore SPR, antibody captured on Protein A chip, huCD79B as analyte, 1:1 kinetic model
Description: The ability of the antibody to bind to the antigen is characterized using Biacore™ Surface Plasmon Resonance (SPR). Specifically, a Protein A chip was used (with channel 1 as the reference channel and channel 2 as the ligand channel). The antibody was immobilized as the ligand in channel 2 of the Protein A chip at a concentration of 10 µg/ml, with an association time of 30 seconds and a flow rate of […].
In this embodiment, the analyte was flowed through both channel 1 and channel 2, with an association time of 60 seconds, a dissociation time of 90 seconds, and a flow rate of 30 µl/min. After the analyte injection was completed, the chip surface was regenerated using glycine buffer with a pH of 1.5. The ligand was immobilized before each analyte injection, and the chip surface was regenerated with the regeneration solution after the analyte injection was completed.
The affinity of the CD79B antibody for human CD79B antigen at the different concentrations mentioned above was determined using Biacore™ SPR. The corresponding analysis software was used to analyze the binding and dissociation with a 1:1 kinetic model.

Row | Kd [1] | koff [1] | kon [1] | Pos. Rate (share of IHC-positive cases) [2] | Kd [3] | koff [3] | kon [3] | Molecule
1 | 19.3 nM | 0.00547 s⁻¹ | 283000 M⁻¹ s⁻¹ | 100% |  |  |  | commercially available CD79B antibody (Abcam, EPR6861)
2 |  |  |  |  | 0.877 nM | 0.000775 s⁻¹ | 844000 M⁻¹ s⁻¹ | LBP2-CD79B (anti-CD79B recombinant rabbit monoclonal antibody) (antibody, V domains shown, the light chain variable region begins QVLTQTP; also called Anti-CD79B Protein Monoclonal Antibody; LBP2-CD79B monoclonal antibody) VH: QSLEESGGRLVTPGGSLTLTCTVSGIDLSTNVMRWVRQAPGKGLEWIGSMLISGNIYYASWAKGRLTISKTSSTTVDLKMTSLTAADTATYFCTRGRLWGQGTLVTVSS VL: AQVLTQTPSSVSAAVGGTVTINCQSSQSVWANNYLAWYQQKPGQPPKILIASASTLASGVSSRFKGSGSGTQFTLTISDVQCDDAATYYCLGSYDCSSADCNAFGGGTEVVVKG
